{
  "source": "patent US7790384B2",
  "about": "“HIP1 cancer markers” (The Regents of the University of Michigan, priority 2001, dated 2010)",
  "tested_on": "cellular survival",
  "experiment": "Effect of expression of HIP1 dominant negative mutant on cellular survival",
  "format": "cell-based",
  "details": "for induction of cell death: expression of construct",
  "description": "The effect of expression of a HIP1 dominant negative mutant on cellular survival was next investigated. […] 39% of HIP1/DE-expressing cells and 50% of caspase 9-expressing cells were apoptotic. […] Expression of the endogenous HIP1, wild type HIP1, HIP1/DE and Caspase 9 was documented by Western blot analysis as shown in the bottom of FIG. 6b.",
  "data": [
    {"molecule": "FLHIP1: wild type full length HIP1 expressed in cells (protein, X: residue not identified in the source, wild type full length HIP1 expressed in cells) MDRMASSMKQVPNPLPKVLSRRGVGAGLEAAERESFERTQTVSINKAINTQEVAVKEKHARTCILGTHHEKGAQTFWSVVNRLPLSSNAVLCWKFCHVFHKLLRDGHPNVLKDSLRYRNELSDMSRMWGYLSEGYGQLCSIYLKLLRTKMEYHTKNPRFPGNLQMSDRQLDEAGESDVNNFSQLTVEMFDYLECELNLFQTVFNSLDMSRSVSVTAAGQCRLAPLIQVILDCSHLYDYTVKLLFKLHSCLPADTLQGHRDRFMEQFTKLKDLFYRSSNLQYFKRLIQIPQLPENPPNFLRASALSEHISPVVVIPAEASSPDSEPVLEKDDLMDMDASQQNLFDNKFDDIFGSSFSSDPFNFNSQNGVNKDEKDHLIERLYREISGLKAQLENMKTESQRVVLQLKGHVSELEADLAEQQHLRQQAADDCEFLRAELDELRRQREDTEKAQRSLSEIERKAQANEQRYSKLKEKYSELVQNHADLLRKNAEVTKQVSMARQAQVDLEREKKELEDSLERISDQGQRKTQEQLEVLESLKQELATSQRELQVLQGSLETSAQSEANWAAEFAELEKERDSLVSGAAHREEELSALRKELQDTQLKLASTEESMCQLAKDQRKMLLVGSRKAAEQVIQDALNQLEEPPLISCAGSADHLLSTVTSISSCIEQLEKSWSQYLACPEDISGLLHSITLLAHLTSDAIAHGATTCLRAPPEPADSLTEACKQYGRETLAYLASLEEEGSLENADSTAMRNCLSKIKAIGEELLPRGLDIKQEELGDLVDKEMAATSAAIETATARIEEMLSKSRAGDTGVKLEVNERILGCCTSLMQAIQVLIVASKDLQREIVESGRGTASPKEFYAKNSRWTEGLISASKAVGWGATVMVDAADLVVQGRGKFEELMVCSHEIAASTAQLVAASKVKADKDSPNLAQLQQASRGVNQATAGVVASTISGKSQIEETDNMDFSSMTLTQIKRQEMDSQVRVLELENELQKERQKLGELRKKHYELAGVAEGWEEGTEASPPTLQEVVTEKESQTNTPYVSVNPCYLSRVCYFPSHRPNPWSPRGSHTTAITQCRGHAHFQRLPPRHPFCLDPWISTASYGGWLGFLVLFFFFKFHSHSQLSQRAHPWGVSRAPQLWLQRWCCPGLSVLHLRLHTDQVLAHPVHAPGSGGAAEQLSSKSRRRVSAFPSSIPAESLCPPLQGRRQQKEGQEGSHSPVPVTRLKNLITCLNGAGEINNTTSLPETVREWSLSSGPSPLAQRRSVGVIPNSFLQTSALASSIGRSFHLLRNQTRKIRCNCSHQGRTLYLVCYPYLLLTSLKQQQPTKRCLEQSELQVLQSSSFCPATSAFKNQKKGQGAGLLLTWIPKQGDHLELLGQRKERTEPAAPTPFSHMPQALAALWTGGQRAHEQLARDGQPNSTFPLLDGPQHLSDLLILGKQRLPSLSIATHWWPSSTSEFLQPGRPLEHAXEGP", "values": [
      {"measurement": "correction of HIP1 deltaE apoptosis", "setting": "co-expression with HIP1 deltaE, FIG. 12 and 13", "value": "correction of HIP1 deltaE apoptosis"},
      {"measurement": "induction of cell death", "setting": "FIG. 6b", "value": "did not induce cell death"}
    ]},
    {"molecule": "HIP1/deltaE: dominant negative mutant of HIP1 lacking the ENTH domain (SEQ ID NO: 4) (protein, listed as Homo sapiens) MFDYLECELNLFQTVFNSLDMSRSVSVTAAGQCRLAPLIQVILDCSHLYDYTVKLLFKLHSCLPADTLQGHRDRFMEQFTKLKDLFYRSSNLQYFKRLIQIPQLPENPPNFLRASALSEHISPVVVIPAEASSPDSEPVLEKDDLMDMDASQQNLFDNKFDDIFGSSFSSDPFNFNSQNGVNKDEKDHLIERLYREISGLKAQLENMKTESQRVVLQLKGHVSELEADLAEQQHLRQQAADDCEFLRAELDELRRQREDTEKAQRSLSEIERKAQANEQRYSKLKEKYSELVQNHADLLRKNAEVTKQVSMARQAQVDLEREKKELEDSLERISDQGQRKTQEQLEVLESLKQELATSQRELQVLQGSLETSAQSEANWAAEFAELEKERDSLVSGAAHREEELSALRKELQDTQLKLASTEESMCQLAKDQRKMLLVGSRKAAEQVIQDALNQLEEPPLISCAGSADHLLSTVTSISSCIEQLEKSWSQYLACPEDISGLLHSITLLAHLTSDAIAHGATTCLRAPPEPADSLTEACKQYGRETLAYLASLEEEGSLENADSTAMRNCLSKIKAIGEELLPRGLDIKQEELGDLVDKEMAATSAAIETATARIEEMLSKSRAGDTGVKLEVNERILGCCTSLMQAIQVLIVASKDLQREIVESGRGTASPKEFYAKNSRWTEGLISASKAVGWGATVMVDAADLVVQGRGKFEELMVCSHEIAASTAQLVAASKVKADKDSPNLAQLQQASRGVNQATAGVVASTISGKSQIEETDNMDFSSMTLTQIKRQEMDSQVRVLELENELQKERQKLGELRKKHYELAGVAEGWEEGTEASPPTLQEVVTEKESQTNTPYVSVNPCYLSRVCYFPSHRPNPWSPRGSHTTAITQCRGHAHFQRLPPRHPFCLDPWISTASYGGWLGFLVLFFFFKFHSHSQLSQRAHPWGVSRAPQLWLQRWCCPGLSVLHLRLHTDQVLAHPVHAPGSGGAAEQLSSKSRRRVSAFPSSIPAESLCPPLQGRRQQKEGQEGSHSPVPVTRLKNLITCLNGAGEINNTTSLPETVREWSLSSGPSPLAQRRSVGVIPNSFLQTSALASSIGRSFHLLRNQTRKIRCNCSHQGRTLYLVCYPYLLLTSLKQQQPTKRCLEQSELQVLQSSSFCPATSAFKNQKKGQGAGLLLTWIPKQGDHLELLGQRKERTEPAAPTPFSHMPQALAALWTGGQRAHEQLARDGQPNSTFPLLDGPQHLSDLLILGKQRLPSLSIATHWWPSSTSEFLQPGRPLEH", "values": [
      {"measurement": "apoptotic cells", "setting": "cells expressing the construct, FIG. 6b", "value": 39, "unit": "%"},
      {"measurement": "induction of cell death", "setting": "FIG. 6b", "value": "promoted cell death"}
    ]}
  ]
}
